# Laboratory results: US20240376455
# Key:
# Assay in all cases: cleavage_in_vitro
# [1] = tested on: T1, LPG10134 (Brevundimonas vesicularis); details: PAM NGG; 37C 120 min
# T1 sequence: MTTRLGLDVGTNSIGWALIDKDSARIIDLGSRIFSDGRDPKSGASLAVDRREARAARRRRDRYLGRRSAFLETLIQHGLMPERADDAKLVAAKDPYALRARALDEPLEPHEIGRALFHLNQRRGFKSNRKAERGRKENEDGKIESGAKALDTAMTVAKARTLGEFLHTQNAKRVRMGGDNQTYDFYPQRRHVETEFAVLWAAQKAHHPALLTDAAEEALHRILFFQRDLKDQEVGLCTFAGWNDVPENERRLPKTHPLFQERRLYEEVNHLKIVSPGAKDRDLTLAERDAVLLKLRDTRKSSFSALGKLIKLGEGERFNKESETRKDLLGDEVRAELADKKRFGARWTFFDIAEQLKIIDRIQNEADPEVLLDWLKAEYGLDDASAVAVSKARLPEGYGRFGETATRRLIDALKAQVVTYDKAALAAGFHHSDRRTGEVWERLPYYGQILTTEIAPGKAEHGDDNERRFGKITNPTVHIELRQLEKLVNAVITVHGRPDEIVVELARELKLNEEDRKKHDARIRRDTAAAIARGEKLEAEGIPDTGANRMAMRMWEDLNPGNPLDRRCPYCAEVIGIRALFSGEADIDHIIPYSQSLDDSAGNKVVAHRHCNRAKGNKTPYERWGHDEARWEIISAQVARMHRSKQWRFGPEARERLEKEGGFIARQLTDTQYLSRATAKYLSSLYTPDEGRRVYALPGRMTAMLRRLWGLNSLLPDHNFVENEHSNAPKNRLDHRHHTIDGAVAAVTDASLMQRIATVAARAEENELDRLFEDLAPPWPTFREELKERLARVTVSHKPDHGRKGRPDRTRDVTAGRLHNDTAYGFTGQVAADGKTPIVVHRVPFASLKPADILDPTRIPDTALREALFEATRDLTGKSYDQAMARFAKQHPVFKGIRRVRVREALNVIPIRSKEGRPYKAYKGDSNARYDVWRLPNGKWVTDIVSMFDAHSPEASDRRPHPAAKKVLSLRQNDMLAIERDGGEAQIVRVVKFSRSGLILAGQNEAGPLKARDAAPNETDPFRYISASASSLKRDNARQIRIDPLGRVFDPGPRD
# [2] = tested on: T2, LPG10155 (Chryseobacterium geocarposphaerae); details: PAM SEQ ID 82
# T2 sequence: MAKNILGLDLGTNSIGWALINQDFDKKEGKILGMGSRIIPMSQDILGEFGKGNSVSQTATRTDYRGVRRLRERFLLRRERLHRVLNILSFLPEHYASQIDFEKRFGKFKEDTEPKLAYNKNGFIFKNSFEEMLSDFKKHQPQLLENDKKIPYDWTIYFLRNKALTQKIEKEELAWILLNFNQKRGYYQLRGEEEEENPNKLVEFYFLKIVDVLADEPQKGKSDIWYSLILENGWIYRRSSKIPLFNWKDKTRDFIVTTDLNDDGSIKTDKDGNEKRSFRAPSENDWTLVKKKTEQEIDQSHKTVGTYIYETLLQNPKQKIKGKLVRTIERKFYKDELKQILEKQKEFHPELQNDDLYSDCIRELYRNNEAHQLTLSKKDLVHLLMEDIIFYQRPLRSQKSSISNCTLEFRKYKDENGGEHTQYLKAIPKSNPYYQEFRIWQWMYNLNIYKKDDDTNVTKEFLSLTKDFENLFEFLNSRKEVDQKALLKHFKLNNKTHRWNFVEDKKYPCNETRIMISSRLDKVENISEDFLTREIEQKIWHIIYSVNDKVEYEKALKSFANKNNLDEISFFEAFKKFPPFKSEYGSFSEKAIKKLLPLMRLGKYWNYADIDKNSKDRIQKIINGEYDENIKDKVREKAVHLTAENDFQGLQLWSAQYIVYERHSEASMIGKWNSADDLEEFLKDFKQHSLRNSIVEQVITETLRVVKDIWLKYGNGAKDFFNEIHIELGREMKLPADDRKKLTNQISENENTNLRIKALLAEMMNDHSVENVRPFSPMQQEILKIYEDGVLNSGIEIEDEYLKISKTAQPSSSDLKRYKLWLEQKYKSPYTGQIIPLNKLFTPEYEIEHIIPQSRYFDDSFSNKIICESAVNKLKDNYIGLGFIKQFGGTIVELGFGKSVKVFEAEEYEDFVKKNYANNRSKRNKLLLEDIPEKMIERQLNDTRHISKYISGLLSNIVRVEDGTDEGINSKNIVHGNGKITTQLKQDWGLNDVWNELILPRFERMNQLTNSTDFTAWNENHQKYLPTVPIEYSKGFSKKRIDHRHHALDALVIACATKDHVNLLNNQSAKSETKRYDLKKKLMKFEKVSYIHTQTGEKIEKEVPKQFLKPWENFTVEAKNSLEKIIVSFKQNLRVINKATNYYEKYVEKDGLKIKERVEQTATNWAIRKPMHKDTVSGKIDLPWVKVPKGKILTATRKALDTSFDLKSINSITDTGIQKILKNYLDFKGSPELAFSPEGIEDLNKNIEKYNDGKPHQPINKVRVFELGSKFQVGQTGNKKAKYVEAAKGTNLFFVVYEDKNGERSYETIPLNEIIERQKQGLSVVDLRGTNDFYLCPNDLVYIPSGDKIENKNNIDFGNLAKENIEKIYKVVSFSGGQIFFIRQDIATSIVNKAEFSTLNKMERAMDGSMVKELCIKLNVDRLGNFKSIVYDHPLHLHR
# [3] = tested on: T3, LPG10160 (Chryseobacterium ureilyticum); details: PAM SEQ ID 84; 35% pure protein
# T3 sequence: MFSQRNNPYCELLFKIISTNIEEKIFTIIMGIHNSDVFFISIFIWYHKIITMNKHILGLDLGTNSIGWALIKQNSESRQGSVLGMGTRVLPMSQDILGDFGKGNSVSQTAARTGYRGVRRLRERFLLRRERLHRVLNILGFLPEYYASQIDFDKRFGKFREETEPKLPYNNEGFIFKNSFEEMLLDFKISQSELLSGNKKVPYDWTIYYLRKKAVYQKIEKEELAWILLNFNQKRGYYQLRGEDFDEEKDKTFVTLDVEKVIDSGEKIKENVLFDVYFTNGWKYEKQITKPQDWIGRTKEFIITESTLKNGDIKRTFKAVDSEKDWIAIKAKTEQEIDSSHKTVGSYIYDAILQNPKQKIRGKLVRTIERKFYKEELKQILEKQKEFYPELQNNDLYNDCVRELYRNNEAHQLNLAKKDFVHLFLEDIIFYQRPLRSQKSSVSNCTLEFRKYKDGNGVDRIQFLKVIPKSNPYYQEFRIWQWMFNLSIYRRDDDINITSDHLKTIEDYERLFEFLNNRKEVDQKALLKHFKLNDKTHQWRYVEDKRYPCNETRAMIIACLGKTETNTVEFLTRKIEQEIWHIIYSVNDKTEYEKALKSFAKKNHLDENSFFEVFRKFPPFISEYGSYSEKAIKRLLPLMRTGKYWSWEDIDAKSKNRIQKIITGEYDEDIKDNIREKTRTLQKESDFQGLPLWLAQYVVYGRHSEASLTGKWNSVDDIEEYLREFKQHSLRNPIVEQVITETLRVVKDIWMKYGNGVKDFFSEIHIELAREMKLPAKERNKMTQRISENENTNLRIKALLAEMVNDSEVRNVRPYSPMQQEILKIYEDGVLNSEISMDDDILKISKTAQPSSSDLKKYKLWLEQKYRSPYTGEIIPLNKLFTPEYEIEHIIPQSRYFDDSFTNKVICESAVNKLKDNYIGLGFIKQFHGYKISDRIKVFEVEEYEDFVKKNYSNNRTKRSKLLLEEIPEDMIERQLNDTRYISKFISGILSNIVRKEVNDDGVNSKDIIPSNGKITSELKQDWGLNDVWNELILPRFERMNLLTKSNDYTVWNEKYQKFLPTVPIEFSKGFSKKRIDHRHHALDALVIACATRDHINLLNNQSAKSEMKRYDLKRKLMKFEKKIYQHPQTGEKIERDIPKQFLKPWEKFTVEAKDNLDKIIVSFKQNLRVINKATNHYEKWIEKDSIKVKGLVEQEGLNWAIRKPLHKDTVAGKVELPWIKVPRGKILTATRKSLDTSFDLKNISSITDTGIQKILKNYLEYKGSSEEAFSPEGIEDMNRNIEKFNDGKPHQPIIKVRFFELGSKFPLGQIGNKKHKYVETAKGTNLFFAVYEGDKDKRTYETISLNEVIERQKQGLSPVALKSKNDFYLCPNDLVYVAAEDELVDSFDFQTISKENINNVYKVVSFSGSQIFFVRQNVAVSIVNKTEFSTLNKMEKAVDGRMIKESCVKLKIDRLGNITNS
sequence,measurement,setting,value
CCAUGAUAUAGACGUUGUGGCUGUUGUAGUGUUGCCGCUGGCCUUCGAUUUCUGAAAAGUCAGAAAUCGAAGGCUGGCUGUUAACAAGCAGCUAGACUGCACCAAAUAAGGGCGGGGCUACGGCCCCGUCUUUU / GATATAGACGTTGTGGCTGTTGTAGTAGGACCTC / GAGGTCCTACTACAACAGCCACAACGTCTATATC [LPG10134 sgRNA L2 ; Library 2 target AGGACCTC],activity (% target strand cleaved),[1],0
GUUGCCGCUGGCCUUCGAUUUCUGAAAAGUCAGAAAUCGAAGGCUGGCUGUUAACAAGCAGCUAGACUGCACCAAAUAAGGGCGGGGCUACGGCCCCGUCUUUUGAGCGGACAGCAGCUUCCUAUAUCUCGUAC / GGACAGCAGCTTCCTATATCTCGTACAGGACCTC / GAGGTCCTGTACGAGATATAGGAAGCTGCTGTCC [LPG10134 sgRNA L1 ; Library 1 target AGGACCTC],activity (% target strand cleaved),[1],0
GUUGUGAAUUGCUUUAAAGAAAGCAAUUCACAAUAAGGAUUAUUCCGUUGUGAAAACAUCUAGCGCCUCGUCUAUCUACGGGGCAUUUU / GATATAGACGTTGTGGCTGTTGTAGTAGAAATTC / GAATTTCTACTACAACAGCCACAACGTCTATATC [LPG10155 sgRNA L2 ; Library 2 target AGAAATTC],activity (% target strand cleaved),[2],7.6
GUUGUGAAUUGCUUUAAAGAAAGCAAUUCACAAUAAGGAUUAUUCCGUUGUGAAAACAUCUAGCGCCUCGUCUAUCUACGGGGCAUUUU / GGACAGCAGCTTCCTATATCTCGTACAGAAATTC / GAATTTCTGTACGAGATATAGGAAGCTGCTGTCC [LPG10155 sgRNA L1 ; Library 1 target AGAAATTC],activity (% target strand cleaved),[2],32.7
GUUGUGAUUUGCUUUAAAGAAAGCAAUUCACAAUAAGGAUUAUUCCGUUGUGAAAACAUUUAAGCCCCCUCGUCUUACAAUACGGGGAUUU / GATATAGACGTTGTGGCTGTTGTAGTAAATATTC / GAATATTTACTACAACAGCCACAACGTCTATATC [LPG10160 sgRNA L2 ; Library 2 target AAATATTC],activity (% target strand cleaved),[3],0
GUUGUGAUUUGCUUUAAAGAAAGCAAUUCACAAUAAGGAUUAUUCCGUUGUGAAAACAUUUAAGCCCCCUCGUCUUACAAUACGGGGAUUU / GGACAGCAGCTTCCTATATCTCGTACAAATATTC / GAATATTTGTACGAGATATAGGAAGCTGCTGTCC [LPG10160 sgRNA L1 ; Library 1 target AAATATTC],activity (% target strand cleaved),[3],0
